These are literature values, as cited in PMC3734285, “Expression and Function of the Lipocalin-2 (24p3/NGAL) Receptor in Rodent and Human Intestinal Epithelia” (PLoS ONE, 2013).

The data set relates to megalin.

B1: hNGAL: Human lipocalin-2/Neutrophil Gelatinase-Associated Lipocalin, high-affinity ligand of hNGAL-R, from Enzo Life Sciences (protein)
chain: QDSTSDLIPAPPLSKVPLQQNFQDNQFQGKWYVVGLAGNAILREDKDPQKMYATIYELKEDKSYNVTSVLFRKKKCDYWIRTFVPGCQPGEFTLGNIKSYPGLTSYLVRVVSTNYNQHAMVFFKKVSQNREYFKITLYGRTKELTSELKENFIRFSKSLGLPENHIVFPVPIDQCIDG
Turning to B1, the “fold lower affinity of megalin to hNGAL (versus hNGAL-R)” value is reported as roughly 1000 fold.
